Several values for one entry are separate records, joined by “and”; a condition that tells them apart may be missing. Identical values can stand only once.
What was measured:
[1] = molecular target: T1, recombinant EGFRvIII extracellular region protein (UniProt P00533 25-645); test: non-competitive ELISA on coated rEGFRvIIIex; derived from the affinity constant
T1 construct: extracellular domain; also called rEGFRvIIIex; rEGFRvIII
Protocol: (§1) After the coated buffer was removed, the plates were washed with PBS one time followed by adding with 350 μl of PBS containing 5% of skimmed milk powder and incubating overnight. Then the plates were washed with PBS twice. […] The plates were incubated with antibodies at 37° C. for 1 hour and washed thrice with PBS. Then the plates were added with 100 μL of HRP-labeled goat anti-mouse secondary antibodies, incubated at 37° C. for 1 hour and washed 5 times with PBS followed by incubation with ABTS substrate for 15 min. The absorbance value was determined at 405 nm with a microplate reader. The binding curve was drawn according to the absorbance values to obtain the antibody concentration at half-maximal OD value (OD50%).
(§2) The concentrations are substituted into the formula K=(n−1)/2 (nAb′−Ab) to calculate the affinity constant, wherein, Ab′ and Ab represent the OD50% antibody concentration (mol/L) when the concentrations of antigen is Ag′ and Ag, n=Ag/Ag′. Six K values were obtained by paired comparison and averaged to obtain the final value.

[2] = molecular target: T1, recombinant EGFRvIII extracellular …; test: non-competitive ELISA, rEGFRvIIIex coated at 2.5 mg/L; antibody concentration at half-maximal OD
Protocol: as §1

[3] = molecular target: T1, recombinant EGFRvIII extracellular …; test: non-competitive ELISA, rEGFRvIIIex coated at 5.0 mg/L; antibody concentration at half-maximal OD
Protocol: as §1

[4] = molecular target: T1, recombinant EGFRvIII extracellular …; test: non-competitive ELISA, rEGFRvIIIex coated at 1.25 mg/L; antibody concentration at half-maximal OD
Protocol: as §1

[5] = molecular target: T1, recombinant EGFRvIII extracellular …; test: non-competitive ELISA, rEGFRvIIIex coated at 0.625 mg/L; antibody concentration at half-maximal OD
Protocol: as §1

[6] = molecular target: T1, recombinant EGFRvIII extracellular …; test: non-competitive ELISA on coated rEGFRvIIIex; average of six K values from paired coating concentrations
Protocol: as §1, §2

B1: monoclonal antibody 12H23 (antibody, V domains shown)
VH: DVQLQESGPGLVKPSQSLSLTCTVTAYSVTSDYAWNWIRQFPGNKLEWMGYISYSGTTRYNPSLKSRISITRDTSKNQFFLQLNSMTAEDTATYYCSRQGRGFPYWGQGTLVTVSA
VL: DILMTQSPSSMSVSLGDTVSITCHASQDINSNIGWLQQKPGKSFKGLIYHGTNLEDGVPSRFSGSGSGADYSLTISSLESEDFADYYCVQYAQFPWTFGGGTKLEIKR
notes: also called murine monoclonal antibody 12H23; clone 12H23
Kd [1]: 0.026 nM
EC50 [2]: 0.0025 µg/mL and 0.017 nM
EC50 [3]: 0.003 µg/mL and 0.02 nM
EC50 [4]: 0.0023 µg/mL and 0.015 nM
EC50 [5]: 2 ng/mL
Ka [6]: 3.8e+10 M⁻¹

— patent US20130039920A1 (SHANGHAI CANCER INSTITUTE, published 2013)
